Where “and” joins values, the source holds several entries; their conditions need not be identical. Identical values can stand only once. Residues, ends and D or L forms follow the SMILES beside them. *: point of attachment. X1 = CC1(C)C(/C=C/C=C/C=C/C=C2/N(CCCCCC(=O)NCCN3C(=O)CC(*)C3=O)c3ccc4ccccc4c3C2(C)C)=[N+](CCCCS(=O)(=O)[O-])c2ccc3ccccc3c21

In one data set the test system is red blood cells (RBCs). Briefly: Hemolysis assay with ICG-pHLIP. The data set is classed as cell-based, human. As to conditions: 0.075 to 1.2 nmol in 150 μL, 37° C., 2 hours. The method, then: Single donor human whole blood was purchased from Innovative Research. Red blood cells (RBCs) were collected by centrifugation of whole blood at 2000 rpm for 10 minutes followed by washing three times with Dulbecco's PBS (DPBS) and re-suspended in DPBS at a concentration of 7.5% (v:v). Varying concentrations of ICG-pHLIP (0.075, 0.15, 0.3, 0.6, 1.2 nmol) in DPBS were added to RBCs to give a 5% RBC suspension (total volume of solution with RBC was 150 μL). The resultant mixtures were incubated at 37° C. for 2 hours and then centrifuged at 2000 rpm for 10 min. Hemolysis was assessed by the release of hemoglobin, which was monitored by measuring the absorbance at 450 nm of the supernatant hemoglobin. DPBS was used as negative controls. As positive controls, which result in 100% lysis of RBCs, we used i) water and ii) 10% of Triton X-100. The percentage of hemolysis was calculated as follows: […]
where, ODTest, ODNC, and ODPC are the optical density reading (absorbance) values of the test sample, negative control and positive control, respectively. The assay was performed in triplicate. The amount of RBC lysis was less than 2% in all samples. For the reference, in mice study 2.5 nmol of ICG pHLIP® is injected per mouse (a 20 g mouse has about 1.2 mL of blood), or 2.08 nmol/ml (the dose will be much lower in humans), while in hemolysis assay the maximum tested concentration was 8 nmol/ml.

Data set [1] in a line: Blood clearance of ICG-pHLIP after single tail vein injection. The data set is classed as in vivo, mouse. Particulars: for Concentration in blood, Mean ± St. D.: 5 animals; for Concentration in blood, Mean ± St. D. / Concentration in blood: 2.5 nmol tail vein; for Concentration in blood: individual animal, listed as ICG-Var3. The method, then:
BALB/cAcNHsd mice ranging in age from 5 to 6 weeks obtained from Envigo RMS Inc were used in the study. Mouse mammary 4T1 cancer cells were subcutaneously implanted in the right flank (8×10^5 cells/0.1 mL/flank) of adult female mice. Triple negative 4T1 tumor model closely mimics stage IV of human breast cancer. When tumors reached 5-6 mm in diameter, single tail vein injections of 2.5 nmol (or 0.5 mg/kg) of ICG-pHLIP in sterile PBS with 5% DMSO or 5% Ethanol (volume of the injection was 100 μl) were performed. The whole body and ex vivo imaging was performed using a Stryker 1588 AIM clinical imaging system with L10 AIM Light Source, 1588 AIM Camera using a 10 mm or 5 mm scope.
Animals were euthanized at time points: 5 min, 1 hr, 2 hrs, 4 hrs, 6 hrs, 16 hrs, 26 hrs and 48 hrs. […] 100 μl of blood was collected immediately after euthanasia and mixed with 12.5 μl of citrate-dextrose anticoagulant solution (kept at 4° C.), and necropsy was performed. Tumor, muscles, skin, heart, lungs, liver, spleen, kidneys, brain, pancreas, bone, stomach, small and large intestines were collected, imaged immediately after collection, weighed, and fast frozen in liquid nitrogen.
Blood samples mixed with of anti-coagulant solution were placed in 384 well plates (MatTek, glass bottom) (15 μL per well) and imaged on an Odyssey IR scanner (Li-Cor Biosciences). […] The same amounts (15 μL) of blood samples were placed in 384 well plate and imaged together with all other blood samples. The digital images were processed using the Image J program to calculate mean fluorescence intensity. The calibration curve (known concentration of ICG-pHLIP in blood samples vs intensity) was constructed to calculate the amount of ICG-pHLIP in blood samples collected from the mice at different times after construct administration.

Data set [2] deals with Human mammary epithelial cells (HMEpC). Description: Cytotoxicity of ICG-pHLIP. As to conditions: 0.125 to 16 μM, 48 and 72 hours. The data set is classed as cell-based. The method, then: Human mammary epithelial cells (HMEpC) were acquired from Cell Applications Inc, and authenticated, and stored according to supplier's instructions. Cells were cultured in mammary epithelial cell growth medium provided by Cell Applications Inc. HMEpC cells were loaded in the wells of 96-well plates (˜6,000 cells per well) and incubated overnight. The increasing amounts of ICG-pHLIP dissolved in cell growth medium were added to cells to have the following final concentration of ICG-pHLIP with cells: 0.125, 0.25, 0.5, 1, 2, 4, 8 and 16 μM. After 48 and 72 hours of incubation, a colorimetric reagent (CellTiter 96 AQueous One Solution Assay, Promega) was added for 1 hour followed by measuring absorbance at 490 nm to assess cell viability. All samples were prepared in triplicate and each experiment was repeated several times.

Regarding `CC(C)C[C@H](NC(=O)[C@H](Cc1ccc(O)cc1)NC(=O)[C@H](C)NC(=O)[C@H](CCCNC(=N)N)NC(=O)[C@H](Cc1c[nH]c2ccccc12)NC(=O)[C@@H]1CCCN1C(=O)[C@H](CC(N)=O)NC(=O)[C@H](CCC(N)=O)NC(=O)[C@H](CC(=O)O)NC(=O)[C@H](CC(=O)O)NC(=O)[C@H](CSC1CC(=O)N(CCNC(=O)CCCCCN2/C(=C/C=C/C=C/C=C/C3=[N+](CCCCS(=O)(=O)[O-])c4ccc5ccccc5c4C3(C)C)C(C)(C)c3c2ccc2ccccc32)C1=O)NC(=O)[C@H](C)N)C(=O)N[C@@H](CC(=O)O)C(=O)N[C@@H](CC(C)C)C(=O)N[C@@H](CC(C)C)C(=O)N[C@@H](Cc1ccccc1)C(=O)N1CCC[C@H]1C(=O)N[C@H](C(=O)N[C@@H](CC(=O)O)C(=O)N[C@H](C(=O)N[C@@H](CC(C)C)C(=O)N[C@@H](CC(C)C)C(=O)N[C@@H](CC(C)C)C(=O)N[C@@H](CC(=O)O)C(=O)N[C@@H](CC(C)C)C(=O)N[C@@H](CC(C)C)C(=O)N[C@@H](Cc1c[nH]c2ccccc12)C(=O)N[C@@H](C)C(=O)O)[C@@H](C)O)[C@@H](C)O` (stereo partly shown) [ICG-pHLIP] (H-AC(X1)DDQNPWRAYLDLLFPTDTLLLDLLWA-OH), in the data set on red blood cells (RBCs), the RBC lysis result is reported as “less than 2%”. For the same compound, the “Concentration in blood, Mean ± St. D.” value in data set [1] (5 min p.i.) is recorded as 2.28 ± 0.23 nmol; in data set [1] (1 hour p.i.), 1.25 ± 0.35 nmol; in data set [1] (2 hours p.i.), 0.59 ± 0.15 nmol; in data set [1] (4 hours p.i.) it was 0.51 ± 0.07 nmol; in data set [1] (6 hours p.i.), 0.38 ± 0.06 nmol; in data set [1] (16 hours p.i.) it was 0.12 ± 0.03 nmol. Further, the “Concentration in blood, Mean ± St. D.” value in data set [1] (26 hours p.i.) was 0.02 ± 0.01 nmol. Besides, the Concentration in blood is 2.56 nmol and 2.09 nmol and 2.47 nmol and 2.02 nmol and 2.24 nmol in data set [1] (5 min p.i.); 1.40 nmol and 1.31 nmol and 1.73 nmol and 0.93 nmol and 0.88 nmol in data set [1] (1 hour p.i.); 0.64 nmol and 0.40 nmol and 0.67 nmol and 0.47 nmol and 0.76 nmol in data set [1] (2 hours p.i.); 0.41 nmol and 0.49 nmol and 0.57 nmol (2×) and 0.48 nmol in data set [1] (4 hours p.i.); 0.41 nmol and 0.38 nmol and 0.32 nmol and 0.35 nmol and 0.46 nmol in data set [1] (6 hours p.i.); 0.11 nmol and 0.13 nmol and 0.10 nmol and 0.16 nmol and 0.08 nmol in data set [1] (16 hours p.i.). The Concentration in blood in data set [1] (26 hours p.i.) is 0.02 nmol (3×) and 0.03 nmol (2×). Also, in data set [1] (female, BALB/cAcNHsd, mouse, whole blood, intravenous, 0.5 mg/kg, two-phase kinetics, read-out: characteristic half lifetime of blood clearance, first phase (converted)), the half-life is 36 min. Also, the “characteristic time for complete clearance of the blood, second phase” value in data set [1] (two-phase kinetics) was found to be 7.5 h. Besides, the “signal drop in first phase of blood clearance” value in data set [1] (two-phase kinetics) worked out at 66%. In addition, in data set [2], the cytotoxic effect entry was “did not show any cytotoxic effect”.

The record behind these values is patent US20180369425A1, “LINKED AND OTHER pH-TRIGGERED COMPOUNDS” (priority 2017, published 2018).
